According to patent US20220380463A1 (Adimab, published 2022):
Positions count from the first letter of the chain named.

T1: Cynomolgus CD3εδ Fc heterodimer (Cy CD3ε Fc / CD3δ Fc-HIS) (cynomolgus, UniProt Q95LI8 22-100)
T1 chain 1: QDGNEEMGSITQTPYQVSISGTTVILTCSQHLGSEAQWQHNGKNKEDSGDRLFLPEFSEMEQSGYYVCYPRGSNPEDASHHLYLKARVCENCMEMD
T1 chain 2: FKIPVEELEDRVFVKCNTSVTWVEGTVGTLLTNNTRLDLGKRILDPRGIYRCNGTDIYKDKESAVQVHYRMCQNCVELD

B1: SAD10319_P02_F06 (ADI-57324) (antibody, V domains shown)
VH: QVQLVQSGAEVKKPGASVKVSCKASGYTFLSYAMHWVRQAPGQRLERMGWINPSTGATDYSQKFQGRVTITRDTSASTAYMELSSLRSEDTAVYYCARDAYGHYFYDVWGQGTLVTVSS
VL: DIVMTQSPDSLAVSLGERATINCKSSQSLLNARTGKNYLAWYQQKPGQPPKLLIYWASTRESGVPDRFSGSGSGTDFTLTISSLQAEDVAVYYCKQSYSRRTFGGGTKVEIK
notes: IgG; also called Ab13
B2: SAD10320_P01_E02 (ADI-57349) (antibody, V domains shown)
VH: QVQLVQSGAEVKKPGASVKVSCKASGFNIKDYYMHWVRQAPGQRLAWMGWIDLENANTIYDAKFQGRVTITRDTSASTAYMELSSLRSEDTAVYYCARDAYGRHFYDVWGQGTLVTVSS
VL: B1 VL
notes: IgG; also called Ab55
B3: LAD9955_P01_G02 (ADI-57439) (antibody, V domains shown)
VH: B2 VH with A46E, H104Y
VL: B1 VL with N31H, Y38H
notes: IgG; also called Ab170
B4: SAD10320_P01_A03 (ADI-57353) (antibody, V domains shown)
VH: B2 VH with A46E, A100H, Y101R, H104Y
VL: B1 VL with Y98S, S99H
notes: IgG; also called Ab60
B5: SAD10320_P02_F06 (ADI-57370) (antibody, V domains shown)
VH: B2 VH with H104F, F105H
VL: B1 VL with T34P
notes: IgG; also called Ab87
B6: SAD10319_P04_B10 (ADI-57332) (antibody, V domains shown)
VH: B1 VH with L30T, Y32T, A33F, R47W, W50F, N52D, P53A, S54G, D59K, V108H
VL: B1 VL
notes: IgG; also called Ab30
B7: LAD9953_P01_H01 (ADI-57437) (antibody, V domains shown)
VH: B2 VH with A46E, H104Y
VL: B1 VL with N31H, G35H
notes: IgG; also called Ab167
B8: LAD9964_P01_C07 (ADI-57444) (antibody, V domains shown)
VH: B2 VH with A46E, H104Y
VL: B1 VL with G35H
B9: LAD9954_P01_B02 (ADI-57438) (antibody, V domains shown)
VH: B2 VH with A46E, H104Y
VL: B1 VL with N31H, K36H
notes: IgG; also called Ab168
B10: SAD10320_P02_G06 (ADI-57371) (antibody, V domains shown)
VH: B2 VH with A46D
VL: B1 VL with G35R, K36T
notes: IgG; also called Ab88
B11: SAD10319_P02_H06 (ADI-48633) (antibody, V domains shown)
VH: QVQLVQSGAEVKKPGASVKVSCKASGYTFTAYVMHWVRQAPGQRLEWMGSIDAGTGNTKYSQKFQGRVTITRDTSASTAYMELSSLRSEDTAVYYCARDAYGHYFYDHWGQGTLVTVSS
VL: B1 VL
notes: IgG; also called Ab16
B12: LAD9959_P01_E04 (ADI-57441) (antibody, V domains shown)
VH: B2 VH with A46E, H104Y
VL: B1 VL with G35H, K36H
notes: IgG; also called Ab172
B13: SAD10319_P04_G10 (ADI-57334) (antibody, V domains shown)
VH: B1 VH with L30T, S31D, A33Y, R47W, S54A, D59A, Y104H
VL: B1 VL
notes: IgG; also called Ab32
B14: SAD10320_P01_B03 (ADI-57354) (antibody, V domains shown)
VH: B2 VH with A46E, E89D, A100Q, Y101H, H104Y
VL: B1 VL
notes: IgG; also called Ab61

Target: T1, Cynomolgus CD3εδ Fc heterodimer (Cy …)
Test: BLI (Octet), IgG on AHC sensor, pH 7.4

| Kd [nM] | koff [s⁻¹] | kon [M⁻¹ s⁻¹] | Binder |
| --- | --- | --- | --- |
| 134 | 0.0331 | 247000 | B1 |
| 68.6 | 0.0208 | 304000 | B2 |
| 127 | 0.0187 | 147000 | B3 |
| 78.4 | 0.0174 | 222000 | B4 |
| 141 | 0.0166 | 118000 | B5 |
| 58.8 | 0.0199 | 338000 | B6 |
| 86.7 | 0.0209 | 242000 | B7 |
| 4.71 | 0.00146 | 310000 | B8 |
| 33.9 | 0.0107 | 316000 | B9 |
| 64.8 | 0.0219 | 338000 | B10 |
| 78 | 0.0171 | 220000 | B11 |
| 89.6 | 0.0189 | 210000 | B12 |
| 62.6 | 0.0182 | 291000 | B13 |
| 75.1 | 0.0159 | 212000 | B14 |

Target: T1, Cynomolgus CD3εδ Fc heterodimer (Cy …)
Test: BLI (Octet), IgG on AHC sensor, pH 6.0

| koff [s⁻¹] | Binder |
| --- | --- |
| 0.0122 | B1 |
| 0.00585 | B2 |
| 0.0282 | B3 |
| 0.0271 | B4 |
| 0.017 | B5 |
| 0.0127 | B6 |
| 0.0176 | B7 |
| 0.000637 | B8 |
| 0.0303 | B9 |
| 0.00387 | B10 |
| 0.0188 | B11 |
| 0.00174 | B12 |
| 0.015 | B13 |
| 0.0204 | B14 |
